This experiment concerns the target T1, PLS linked to a C-terminal GFP (p35S::PLS:GFP) (Arabidopsis thaliana, UniProt Q8LLV8 1-36).
T1 construct: POLARIS (PLS) peptide, Arabidopsis thaliana, 36 amino acids; 'the 105-nucleotide PLS gene (without the stop codon)' in pEarlyGate103; source: Nicotiana benthamiana leaves, Agrobacterium infiltration, transient expression, in protein extract; not shown: GFP, C-terminal, kept
The experiment in a line: co-IP; PLS:GFP and ETR1:HA co-expressed in N. benthamiana leaves, 3 d; anti-GFP beads or anti-HA beads, western blot; extract with 0.5 μM copper sulphate or 2 mM EDTA. The settings on record: partners not purified.

T1 sequence (Q8LLV8 whole entry): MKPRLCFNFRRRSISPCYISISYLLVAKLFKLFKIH

B1: ETR1 with a C-terminal HA tag (p35S::ETR1:HA) (receptor, Arabidopsis, UniProt P49333 1-738, looked up)
chain: MEVCNCIEPQWPADELLMKYQYISDFFIAIAYFSIPLELIYFVKKSAVFPYRWVLVQFGAFIVLCGATHLINLWTFTTHSRTVALVMTTAKVLTAVVSCATALMLVHIIPDLLSVKTRELFLKNKAAELDREMGLIRTQEETGRHVRMLTHEIRSTLDRHTILKTTLVELGRTLALEECALWMPTRTGLELQLSYTLRHQHPVEYTVPIQLPVINQVFGTSRAVKISPNSPVARLRPVSGKYMLGEVVAVRVPLLHLSNFQINDWPELSTKRYALMVLMLPSDSARQWHVHELELVEVVADQVAVALSHAAILEESMRARDLLMEQNVALDLARREAETAIRARNDFLAVMNHEMRTPMHAIIALSSLLQETELTPEQRLMVETILKSSNLLATLMNDVLDLSRLEDGSLQLELGTFNLHTLFREVLNLIKPIAVVKKLPITLNLAPDLPEFVVGDEKRLMQIILNIVGNAVKFSKQGSISVTALVTKSDTRAADFFVVPTGSHFYLRVKVKDSGAGINPQDIPKIFTKFAQTQSLATRSSGGSGLGLAISKRFVNLMEGNIWIESDGLGKGCTAIFDVKLGISERSNESKQSGIPKVPAIPRHSNFTGLKVLVMDENGVSRMVTKGLLVHLGCEVTTVSSNEECLRVVSHEHKVVFMDVCMPGVENYQIALRIHEKFTKQRHQRPLLVALSGNTDKSTKEKCMSFGLDGVLLKPVSLDNIRDVLSDLLEPRVLYEGM
notes: 'the ETR1 cDNA' in pEarlyGate301; source: Nicotiana benthamiana leaves, Agrobacterium infiltration, transient expression, in protein extract; not shown: HA, C-terminal, kept
With B1, the “fold more co-precipitated with copper ions than with 2 mM EDTA” value is about 3 fold.

These data come from paper doi:10.1101/2023.06.15.545071, “POLARIS is a copper-binding peptide required for ethylene signalling control in Arabidopsis” (bioRxiv, 2023).
